Measured values: patent publication US10738340B2, “Methods and materials for enzymatic synthesis of mogroside compounds” (EVOLVA SA, priority 2011, dated 2020)

Test: In vitro UGT screening: reactions of mogrol with a panel of 230 UGT enzymes, products analyzed with LC-MS
Type: biochemical
Conditions: for position of mogrol glycosylated by the UGT: aglycone mogrol as substrate, see FIG. 2; for product formed from mogrol substrate in the in vitro UGT reaction (LC-MS): partially purified UGT enzyme or crude enzyme extract
Procedure: In vitro reactions of mogrol with a panel of 230 UGT enzymes were performed and the products were analyzed with LC-MS. The in vitro UGT reaction mixtures included 4× Tris buffer, mogrol (250 μM), UDP-glucose (750 μM) and 1% alkaline phosphatase. Five μl of each partially purified UGT enzyme or crude enzyme extract was added to the reaction, and the reaction volume brought to 50 μl with water. The reactions were incubated overnight at 30° C. and performed in sterilized 96 well plates. After the incubation, 25 μL of DMSO were added into each reaction and the reaction plates were centrifuged for 5 min. Forty μL samples were taken from each well and filtered, and were used for LC-MS analysis.

[1] = mogrol 250 μM, UDP-glucose 750 μM, overnight at 30° C.

| Molecule | position of mogrol glycosylated by the UGT | product formed from mogrol substrate in the in vitro UGT reaction (LC-MS) [1] | completeness of the mogrol glycosylation reaction [1] |
| --- | --- | --- | --- |
| UGT 85C2: UDP dependent glucosyltransferase from Stevia rebaudiana, glycosyltransferase family I, SEQ ID NO:5 (protein, listed as Stevia rebaudiana) MDAMATTEKKPHVIFIPFPAQSHIKAMLKLAQLLHHKGLQITFVNTDFIHNQFLESSGPHCLDGAPGFRFETIPDGVSHSPEASIPIRESLLRSIETNFLDRFIDLVTKLPDPPTCIISDGFLSVFTIDAAKKLGIPVMMYWTLAACGFMGFYHIHSLIEKGFAPLKDASYLTNGYLDTVIDWVPGMEGIRLKDFPLDWSTDLNDKVLMFTTEAPQRSHKVSHHIFHTFDELEPSIIKTLSLRYNHIYTIGPLQLLLDQIPEEKKQTGITSLHGYSLVKEEPECFQWLQSKEPNSVVYVNFGSTTVMSLEDMTEFGWGLANSNHYFLWIIRSNLVIGENAVLPPELEEHIKKRGFIASWCSQEKVLKHPSVGGFLTHCGWGSTIESLSAGVPMICWPYSWDQLTNCRYICKEWEVGLEMGTKVKRDEVKRLVQELMGEGGHKMRNKAKDWKEKARIAIAPNGSSSLNIDKMVKEITVLARN | glycosylate at the C24-OH position | convert all the mogrol substrate to mogroside Ib |  |
| UGT 73C3: UDP dependent glucosyltransferase from Arabidopsis thaliana, glycosyltransferase family I, SEQ ID NO:1 (protein, listed as Arabidopsis thaliana) MATEKTHQFHPSLHFVLFPFMAQGHMIPMIDIARLLAQRGVTITIVTTPHNAARFKNVLNRAIESGLAINILHVKFPYQEFGLPEGKENIDSLDSTELMVPFFKAVNLLEDPVMKLMEEMKPRPSCLISDWCLPYTSIIAKNFNIPKIVFHGMGCFNLLCMHVLRRNLEILENVKSDEEYFLVPSFPDRVEFTKLQLPVKANASGDWKEIMDEMVKAEYTSYGVIVNTFQELEPPYVKDYKEAMDGKVWSIGPVSLCNKAGADKAERGSKAAIDQDECLQWLDSKEEGSVLYVCLGSICNLPLSQLKELGLGLEESRRSFIWVIRGSEKYKELFEWMLESGFEERIKERGLLIKGWAPQVLILSHPSVGGFLTHCGWNSTLEGITSGIPLITWPLFGDQFCNQKLVVQVLKAGVSAGVEEVMKWGEEDKIGVLVDKEGVKKAVEELMGDSDDAKERRRRVKELGELAHKAVEKGGSSHSNITLLLQDIMQLAQFKN | glycosylate at the C24-OH position | convert all the mogrol substrate to mogroside Ib |  |
| UGT 73C6: UDP dependent glucosyltransferase from Arabidopsis thaliana, glycosyltransferase family I, SEQ ID NO:3 (protein, listed as Arabidopsis thaliana) MAFEKNNEPFPLHFVLFPFMAQGHMIPMVDIARLLAQRGVLITIVTTPHNAARFKNVLNRAIESGLPINLVQVKFPYQEAGLQEGQENMDLLTTMEQITSFFKAVNLLKEPVQNLIEEMSPRPSCLISDMCLSYTSEIAKKFKIPKILFHGMGCFCLLCVNVLRKNREILDNLKSDKEYFIVPYFPDRVEFTRPQVPVETYVPAGWKEILEDMVEADKTSYGVIVNSFQELEPAYAKDFKEARSGKAWTIGPVSLCNKVGVDKAERGNKSDIDQDECLEWLDSKEPGSVLYVCLGSICNLPLSQLLELGLGLEESQRPFIWVIRGWEKYKELVEWFSESGFEDRIQDRGLLIKGWSPQMLILSHPSVGGFLTHCGWNSTLEGITAGLPMLTWPLFADQFCNEKLVVQILKVGVSAEVKEVMKWGEEEKIGVLVDKEGVKKAVEELMGESDDAKERRRRAKELGESAHKAVEEGGSSHSNITFLLQDIMQLAQSNN | glycosylate at the C24-OH position | convert all the mogrol substrate to mogroside Ib |  |
| UGT 73C5: UDP dependent glucosyltransferase from Arabidopsis thaliana, glycosyltransferase family I, SEQ ID NO:2 (protein, listed as Arabidopsis thaliana) MVSETTKSSPLHFVLFPFMAQGHMIPMVDIARLLAQRGVIITIVTTPHNAARFKNVLNRAIESGLPINLVQVKFPYLEAGLQEGQENIDSLDTMERMIPFFKAVNFLEEPVQKLIEEMNPRPSCLISDFCLPYTSKIAKKFNIPKILFHGMGCFCLLCMHVLRKNREILDNLKSDKELFTVPDFPDRVEFTRTQVPVETYVPAGDWKDIFDGMVEANETSYGVIVNSFQELEPAYAKDYKEVRSGKAWTIGPVSLCNKVGADKAERGNKSDIDQDECLKWLDSKKHGSVLYVCLGSICNLPLSQLKELGLGLEESQRPFIWVIRGWEKYKELVEWFSESGFEDRIQDRGLLIKGWSPQMLILSHPSVGGFLTHCGWNSTLEGITAGLPLLTWPLFADQFCNEKLVVEVLKAGVRSGVEQPMKWGEEEKIGVLVDKEGVKKAVEELMGESDDAKERRRRAKELGDSAHKAVEEGGSSHSNISFLLQDIMELAEPNN | glycosylates at both the C3-OH (UGT #1 in FIG. 2) and C24-OH position | makes both mogroside Ia and Ib |  |
| UGT 73E1: UDP dependent glucosyltransferase from Stevia rebaudiana, glycosyltransferase family I, SEQ ID NO:4 (protein, listed as Stevia rebaudiana) MSPKMVAPPTNLHFVLFPLMAQGHLVPMVDIARILAQRGATVTIITTPYHANRVRPVISRAIATNLKIQLLELQLRSTEAGLPEGCESFDQLPSFEYWKNISTAIDLLQQPAEDLLRELSPPPDCIISDFLFPWTTDVARRLNIPRLVFNGPGCFYLLCIHVAITSNILGENEPVSSNTERVVLPGLPDRIEVTKLQIVGSSRPANVDEMGSWLRAVEAEKASFGIVVNTFEELEPEYVEEYKTVKDKKMWCIGPVSLCNKTGPDLAERGNKAAITEHNCLKWLDERKLGSVLYVCLGSLARISAAQAIELGLGLESINRPFIWCVRNETDELKTWFLDGFEERVRDRGLIVHGWAPQVLILSHPTIGGFLTHCGWNSTIESITAGVPMITWPFFADQFLNEAFIVEVLKIGVRIGVERACLFGEEDKVGVLVKKEDVKKAVECLMDEDEDGDQRRKRVIELAKMAKIAMAEGGSSYENVSSLIRDVTETVRAPH | glycosylate at the C24-OH position | mogroside Ib was found as the major product, together with a new glycosylated mogrol | the reaction was not complete |
